Assay results reported in article PMC5096715, “Mapping the Complement Factor H-Related Protein 1 (CFHR1):C3b/C3d Interactions” (PLoS ONE, 2016).

Biological target: the molecule itself
Test: SEC; preparative HiPrep 16/60 Sephacryl S200 column in DPBS pH 7.4

B1: complement factor H-related protein 1 (CFHR1), recombinant wild-type (natural protein, human, UniProt Q03591 19-330, looked up)
chain: EATFCDFPKINHGILYDEEKYKPFSQVPTGEVFYYSCEYNFVSPSKSFWTRITCTEEGWSPTPKCLRLCFFPFVENGHSESSGQTHLEGDTVQIICNTGYRLQNNENNISCVERGWSTPPKCRSTDTSCVNPPTVQNAHILSRQMSKYPSGERVRYECRSPYEMFGDEEVMCLNGNWTEPPQCKDSTGKCGPPPPIDNGDITSFPLSVYAPASSVEYQCQNLYQLEGNKRITCRNGQWSEPPKCLHPCVISREIMENYNIALRWTAKQKLYLRTGESAEFVCKRGYRLSSRSHTLRTTCWDGKLEYPTCAKR
notes: complement factor H-related protein 1, human, CFHR1*A variant, residues 19-330 of Q03591 (the mature protein, 5 SCR modules); no cleavage of the tag is told; Glycosylated; elutes as a mixture of dimers and monomers; also called wild-type CFHR1; CFHR1*A variant; source: Freestyle 293f cells, transiently transfected, secreted, purified (Histrap HP, Sephacryl S200 SEC); not shown: His6, N-terminal, …
For B1, the “stoichiometry N” value was 2.
